Experimental data as given in US20140274782A1, “AFFINITY REAGENTS AND METHODS FOR DETECTION, PURIFICATION, AND PROTEOMIC ANALYSIS OF METHYLATED PROTEINS” (The Board of Trustees of the Leland Stanford Junior …, priority 2013, published 2014).

T1: G9a and GLP (Homo sapiens, UniProt Q96KQ7+Q9H9B1)
T1 sequence (Q96KQ7 2-1210 limits assumed): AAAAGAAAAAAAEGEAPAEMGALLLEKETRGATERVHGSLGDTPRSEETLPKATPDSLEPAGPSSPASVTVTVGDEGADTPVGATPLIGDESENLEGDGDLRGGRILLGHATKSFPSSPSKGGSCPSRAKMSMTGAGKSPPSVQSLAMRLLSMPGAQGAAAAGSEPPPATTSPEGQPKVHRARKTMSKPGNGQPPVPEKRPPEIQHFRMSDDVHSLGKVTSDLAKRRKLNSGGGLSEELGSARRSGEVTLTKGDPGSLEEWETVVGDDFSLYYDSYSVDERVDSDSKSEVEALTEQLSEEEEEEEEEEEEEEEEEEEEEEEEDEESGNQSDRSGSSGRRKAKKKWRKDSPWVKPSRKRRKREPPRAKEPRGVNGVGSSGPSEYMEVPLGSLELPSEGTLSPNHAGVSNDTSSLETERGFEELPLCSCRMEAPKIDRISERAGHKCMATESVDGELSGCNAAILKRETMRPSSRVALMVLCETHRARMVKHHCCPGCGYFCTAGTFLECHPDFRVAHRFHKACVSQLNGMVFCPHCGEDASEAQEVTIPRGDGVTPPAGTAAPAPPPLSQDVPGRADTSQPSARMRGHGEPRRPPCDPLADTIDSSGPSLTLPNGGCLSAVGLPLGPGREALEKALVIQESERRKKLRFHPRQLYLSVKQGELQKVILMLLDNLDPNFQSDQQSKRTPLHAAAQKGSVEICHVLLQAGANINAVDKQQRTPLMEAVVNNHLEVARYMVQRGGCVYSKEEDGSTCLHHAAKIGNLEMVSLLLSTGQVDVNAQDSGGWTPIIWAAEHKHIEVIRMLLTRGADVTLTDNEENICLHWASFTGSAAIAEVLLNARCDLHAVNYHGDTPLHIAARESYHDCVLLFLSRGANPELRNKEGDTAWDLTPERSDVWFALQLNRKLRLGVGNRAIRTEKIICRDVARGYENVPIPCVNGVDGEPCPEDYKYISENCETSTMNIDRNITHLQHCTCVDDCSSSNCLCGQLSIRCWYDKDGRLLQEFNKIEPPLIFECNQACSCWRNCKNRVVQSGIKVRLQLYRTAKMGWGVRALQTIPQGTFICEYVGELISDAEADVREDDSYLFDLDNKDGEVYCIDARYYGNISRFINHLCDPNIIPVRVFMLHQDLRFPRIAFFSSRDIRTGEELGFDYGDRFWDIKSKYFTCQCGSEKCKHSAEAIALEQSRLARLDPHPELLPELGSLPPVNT
T1 sequence (Q9H9B1 2-1298 limits assumed): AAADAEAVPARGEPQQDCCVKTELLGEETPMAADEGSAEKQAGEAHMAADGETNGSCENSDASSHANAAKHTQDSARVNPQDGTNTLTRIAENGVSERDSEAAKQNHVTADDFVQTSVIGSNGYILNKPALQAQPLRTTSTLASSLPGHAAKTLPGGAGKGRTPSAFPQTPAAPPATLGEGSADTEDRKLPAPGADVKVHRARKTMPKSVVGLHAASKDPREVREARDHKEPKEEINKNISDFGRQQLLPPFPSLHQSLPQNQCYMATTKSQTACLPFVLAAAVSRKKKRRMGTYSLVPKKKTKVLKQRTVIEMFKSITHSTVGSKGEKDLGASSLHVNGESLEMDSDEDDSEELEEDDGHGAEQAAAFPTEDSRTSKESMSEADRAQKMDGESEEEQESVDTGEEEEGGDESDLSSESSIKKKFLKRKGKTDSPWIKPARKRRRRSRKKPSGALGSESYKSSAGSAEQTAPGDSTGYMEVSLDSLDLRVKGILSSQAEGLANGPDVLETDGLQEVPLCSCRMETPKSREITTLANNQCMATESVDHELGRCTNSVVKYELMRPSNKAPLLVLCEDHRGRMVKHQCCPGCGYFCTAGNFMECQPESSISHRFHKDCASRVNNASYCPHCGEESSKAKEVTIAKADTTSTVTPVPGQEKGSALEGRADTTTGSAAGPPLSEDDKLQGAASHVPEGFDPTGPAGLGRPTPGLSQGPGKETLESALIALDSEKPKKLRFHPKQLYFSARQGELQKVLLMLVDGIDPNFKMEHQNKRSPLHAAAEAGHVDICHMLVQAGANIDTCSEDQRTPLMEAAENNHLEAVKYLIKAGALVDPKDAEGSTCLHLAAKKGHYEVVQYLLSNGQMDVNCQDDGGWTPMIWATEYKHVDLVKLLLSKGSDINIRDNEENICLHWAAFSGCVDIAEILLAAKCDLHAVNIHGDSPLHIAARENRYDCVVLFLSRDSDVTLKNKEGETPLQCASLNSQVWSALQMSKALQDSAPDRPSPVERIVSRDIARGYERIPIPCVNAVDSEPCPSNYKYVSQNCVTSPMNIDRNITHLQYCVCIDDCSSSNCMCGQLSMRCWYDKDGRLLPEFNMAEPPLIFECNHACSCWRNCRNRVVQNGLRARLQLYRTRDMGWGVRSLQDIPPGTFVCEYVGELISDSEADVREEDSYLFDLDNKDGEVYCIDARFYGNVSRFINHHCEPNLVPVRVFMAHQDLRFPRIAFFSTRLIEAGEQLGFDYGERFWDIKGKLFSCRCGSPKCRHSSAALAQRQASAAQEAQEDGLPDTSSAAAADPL


Key:
[1] = target: T1, G9a and GLP; assay: Triple SILAC pull-down after UNC0638 treatment of 293T cells, DMSO/UNC0638 ratio of protein captured by 3×MBT; assay type: cell-based; parameters: cells were treated for 24 hours with UNC0638 at 2.5 μM or DMSO vehicle control; endogenous in cells; host or cells: HEK 293T; details: for Relative to UNC0638 UNC Heavy / Relative to UNC0638 UNC Light: SILAC ratio DMSO/UNC0638 of protein pulled down with 3xMBT; for Relative to UNC0638 UNC Heavy: UNC0638 in heavy SILAC media; for Relative to UNC0638 UNC Light: UNC0638 in light SILAC media; for Relative to UNC0638 Average: average of UNC Light and UNC Heavy experiments;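 on all read-outs here: mass spectrometry (Q-Exactive) SILAC quantitation, DMSO/UNC0638 ratio computed after subtracting 3×MBTD355N mutant pull-down background, only proteins with at least twofold 3×MBT over mutant signal considered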
[2] = system: 3×MBT domain of L3MBTL1; assay: Triple SILAC pull-down, 3xMBT/3xMBTD355N ratio (cytoplasmic, nuclear and chromatin fractions of 293T cells); assay type: binding, human; details: SILAC ratio, pull-down 3xMBT vs 3xMBTD355N; for 3xMBT/D355N UNC Heavy: experiment with UNC0638 in heavy SILAC media; for 3xMBT/D355N UNC Light: experiment with UNC0638 in light SILAC media;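 on all read-outs here: proteins quantified with MaxQuant, requiring at least two unique peptides and quantification in both label directions, normalized to the mean of proteins from a digested loading control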

Row | Molecule | Relative to UNC0638 UNC Heavy [1] [log base 2] | Relative to UNC0638 UNC Light [1] [log base 2] | Relative to UNC0638 Average [1] [log base 2] | 3xMBT/D355N UNC Heavy [2] [log base 2] | 3xMBT/D355N UNC Light [2] [log base 2]
1 | TRMT61A (protein, UniProt Q96FX7 2-289, looked up) tRNA …: SFVAYEELIKEGDTAILSLGHGAMVAVRVQRGAQTQTRHGVLRHSVDLIGRPFGSKVTCGRGGWVYVLHPTPELWTLNLPHRTQILYSTDIALITMMLELRPGSVVCESGTGSGSVSHAIIRTIAPTGHLHTVEFHQQRAEKAREEFQEHRVGRWVTVRTQDVCRSGFGVSHVADAVFLDIPSPWEAVGHAWDALKVEGGRFCSFSPCIEQVQRTCQALAARGFSELSTLEVLPQVYNVRTVSLPPPDLGTGTDGPAGSDTSPFRSGTPMKEAVGHTGYLTFATKTPG | −0.07 | 0.29 | 0.11 | 2.78 | 3.82
2 | MINA (protein, UniProt Q8IUF8 1-465, looked up) Ribosomal oxygenase 2: MPKKAKPTGSGKEEGPAPCKQMKLEAAGGPSALNFDSPSSLFESLISPIKTETFFKEFWEQKPLLIQRDDPALATYYGSLFKLTDLKSLCSRGMYYGRDVNVCRCVNGKKKVLNKDGKAHFLQLRKDFDQKRATIQFHQPQRFKDELWRIQEKLECYFGSLVGSNVYITPAGSQGLPPHYDDVEVFILQLEGEKHWRLYHPTVPLAREYSVEAEERIGRPVHEFMLKPGDLLYFPRGTIHQADTPAGLAHSTHVTISTYQNNSWGDFLLDTISGLVFDTAKEDVELRTGIPRQLLLQVESTTVATRRLSGFLRTLADRLEGTKELLSSDMKKDFIMHRLPPYSAGDGAELSTPGGKLPRLDSVVRLQFKDHIVLTVLPDQDQSDEAQEKMVYIYHSLKNSRETHMMGNEEETEFHGLRFPLSHLDALKQIWNSPAISVKDLKLTTDEEKESLVLSLWTECLIQVV | 0.34 | −0.08 | 0.13 | 2.27 | 2.12
3 | ILKAP (protein, UniProt Q9H0C8 1-392, looked up) Integrin-linked …: MDLFGDLPEPERSPRPAAGKEAQKGPLLFDDLPPASSTDSGSGGPLLFDDLPPASSGDSGSLATSISQMVKTEGKGAKRKTSEEEKNGSEELVEKKVCKASSVIFGLKGYVAERKGEREEMQDAHVILNDITEECRPPSSLITRVSYFAVFDGHGGIRASKFAAQNLHQNLIRKFPKGDVISVEKTVKRCLLDTFKHTDEEFLKQASSQKPAWKDGSTATCVLAVDNILYIANLGDSRAILCRYNEESQKHAALSLSKEHNPTQYEERMRIQKAGGNVRDGRVLGVLEVSRSIGDGQYKRCGVTSVPDIRRCQLTPNDRFILLACDGLFKVFTPEEAVNFILSCLEDEKIQTREGKSAADARYEAACNRLANKAVQRGSADNVTVMVVRIGH | −0.07 | 0.33 | 0.13 | 3.22 | 2.54
4 | PABPN1 (protein, UniProt Q86U42 2-306, looked up) Polyadenylate-binding protein …: AAAAAAAAAAGAAGGRGSGPGRRRHLVPGAGGEAGEGAPGGAGDYGNGLESEELEPEELLLEPEPEPEPEEEPPRPRAPPGAPGPGPGSGAPGSQEEEEEPGLVEGDPGDGAIEDPELEAIKARVREMEEEAEKLKELQNEVEKQMNMSPPPGNAGPVIMSIEEKMEADARSIYVGNVDYGATAEELEAHFHGCGSVNRVTILCDKFSGHPKGFAYIEFSDKESVRTSLALDESLFRGRQIKVIPKRTNRPGISTTDRGFPRARYRARTTNYNSSRSRFYSGFNSRPRGRVYRGRARATSWYSPY | 0.21 | 0.04 | 0.13 | 3.77 | 4.04
5 | UBAP2 (protein, UniProt Q5T6F2 1-1119, looked up) Ubiquitin-associated protein 2: MMTSVSSDHCRGAREKPQISAAQSTQPQKQVVQATAEQMRLAQVIFDKNDSDFEAKVKQLMEVTGKNQDECIVALHDCNGDVNKAINILLEGNSDTTSWETVGCKKKNFAKENSENKENREKKSEKESSRGRGNNNRKGRGGNRGREFRGEENGIDCNQVDKPSDRGKRARGRGFGRGRGRGAGRFSTQGMGTFNPADYSDSTSTDVCGTKLVVWEAAQNGADEGTELASNTHNIAQDLSNKSSYGLKGAWKNSVEEWTTEDWTEDLSETKVFTASSAPAENHILPGQSIDLVALLQKPVPHSQASEANSFETSQQQGFGQALVFTNSQHNNQMAPGTGSSTAVNSCSPQSLSSVLGSGFGELAPPKMANITSSQILDQLKAPSLGQFTTTPSTQQNSTSHPTTTTSWDLKPPTSQSSVLSHLDFKSQPEPSPVLSQLSQRQQHQSQAVTVPPPGLESFPSQAKLRESTPGDSPSTVNKLLQLPSTTIENISVSVHQPQPKHIKLAKRRIPPASKIPASAVEMPGSADVTGLNVQFGALEFGSEPSLSEFGSAPSSENSNQIPISLYSKSLSEPLNTSLSMTSAVQNSTYTTSVITSCSLTSSSLNSASPVAMSSSYDQSSVHNRIPYQSPVSSSESAPGTIMNGHGGGRSQQTLDTPKTTGPPSALPSVSSLPSTTSCTALLPSTSQHTGDLTSSPLSQLSSSLSSHQSSLSAHAALSSSTSHTHASVESASSHQSSATFSTAATSVSSSASSGASLSSSMNTANSLCLGGTPASASSSSSRAAPLVTSGKAPPNLPQGVPPLLHNQYLVGPGGLLPAYPIYGYDELQMLQSRLPVDYYGIPFAAPTALASRDGSLANNPYPGDVTKFGRGDSASPAPATTPAQPQQSQSQTHHTAQQPFVNPALPPGYSYTGLPYYTGMPSAFQYGPTMFVPPASAKQHGVNLSTPTPPFQQASGYGQHGYSTGYDDLTQGTAAGDYSKGGYAGSSQAPNKSAGSGPGKGVSVSSSTTGLPDMTGSVYNKTQTFDKQGFHAGTPPPFSLPSVLGSTGPLASGAAPGYAPPPFLHILPAHQQPHSQLLHHHLPQDAQSGSGQRSQPSSLQPKSQASKPAYGNSPYWTN | 0.20 | 0.04 | 0.12 | 2.90 | 1.92
